Assay results from PMC7266993, “STAG1 vulnerabilities for exploiting cohesin synthetic lethality in STAG2-deficient cancers” (Life Science Alliance, 2020).

Assays:
[1] = molecular target: T1, Biotinylated RAD21 peptide, residues 356-395 (Biotin-Ttds-RAD21 356-395) (human, N-terminal biotin followed by a trioxatridecan–succinamic acid spacer (Biotin-Ttds-)); test: SPR; Biacore S200, SA chip, ~400 RU biotinylated RAD21 356-395 immobilised; STAG1 as analyte, single cycle kinetics 7.5-1,000 nM, 120 s injections; 10 mM Hepes pH 7.5, 150 mM NaCl, 0.5 mM TCEP; 1:1 binding model; conditions: both partners purified
T1 construct: Immobilised on a streptavidin (SA) sensor chip through the biotin; source: synthetic peptide, purchased
T1 peptide: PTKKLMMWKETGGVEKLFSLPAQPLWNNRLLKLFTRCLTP

[2] = molecular target: T1, Biotinylated RAD21 peptide, residues …; test: SPR; Biacore S200, SA chip, biotinylated RAD21 356-395 immobilised; STAG1 as analyte, equilibrium analysis (650 s association, 1,200 s dissociation), dose-response fit; 10 mM Hepes pH 7.5, 150 mM NaCl, 0.5 mM TCEP; apparent; conditions: both partners purified

Kd [1]: 127 nM
koff [1]: 0.00709 s⁻¹
kon [1]: 55900 M⁻¹ s⁻¹
Kd [2]: 148 ± 22 nM
B1: STAG1 central region, wild type, as used in surface plasmon resonance (residues 415-915 as printed in the results) (domain or fragment)
chain: NVYHLVYSAHRPVAVAAGEFLHKKLFSRHDPQAEEALAKRRGRNSPNGNLIRMLVLFFLESELHEHAAYLVDSLWESSQELLKDWECMTELLLEEPVQGEEAMSDRQESALIELMVCTIRQAAEAHPPVGRGTGKRVLTAKERKTQIDDRNKLTEHFIITLPMLLSKYSADAEKVANLLQIPQYFDLEIYSTGRMEKHLDALLKQIKFVVEKHVESDVLEACSKTYSILCSEEYTIQNRVDIARSQLIDEFVDRFNHSVEDLLQEGEEADDDDIYNVLSTLKRLTSFHNAHDLTKWDLFGNCYRLLKTGIEHGAMPEQIVVQALQCSHYSILWQLVKITDGSPSKEDLLVLRKTVKSFLAVCQQCLSNVNTPVKEQAFMLLCDLLMIFSHQLMTGGREGLQPLVFNPDTGLQSELLSFVMDHVFIDQDEENQSMEGDEEDEANKIEALHKRRNLLAAFSKLIIYDIVDMHAAADIFKHYMKYYNDYGDIIKETLSKTRQID
